Test results from PMC2927601, “Molecular basis for defect in Alix-binding by alternatively spliced isoform of ALG-2 (ALG-2^ΔGF122) and structural roles of F122 in target recognition” (BMC Structural Biology, 2010).
One block for each binder: values may come before it.

B2: synthetic peptide of the ALG-2-binding site in Alix with N-terminal linker (peptide)
peptide: KGGSGGSQGPPYPTYPGYPGYSQ
notes: linker, printed in lower case; also called Alix ABS peptide; ABS oligopeptide; source: synthetic peptide (Biosynthesis Inc., USA)

What was measured:
[1] = biological target: B2; test: SPR; Biacore2000, 25°C; Alix ABS peptide immobilized on CM5 chip; ALG-2 proteins 100 nM in HBS-P (10 mM HEPES-NaOH pH 7.4, 150 mM NaCl, 0.005% P20) with 100 μM CaCl2, 20 μl/min, injected 180 s; resonance signal at 10 s before dissociation phase relative to WT; details: both partners purified
[2] = biological target: T1, ALG-2 (apoptosis-linked gene 2), wild type, full-length recombinant (human, UniProt O75340 1-191); test: as above; details: both partners purified
T1 construct: ALG-2, human, 22-kDa protein of 191 amino acid residues; longer (major) isoform regarded as wild type; also called WT; wild-type ALG-2

relative binding capacity (% of WT resonance signal) [1]: 36%
B3: ALG-2^F122W, full-length recombinant (natural protein, human, UniProt O75340 1-191, looked up)
chain: MAAYSYRPGPGAGPGPAAGAALPDQSFLWNVFQRVDKDRSGVISDTELQQALSNGTWTPFNPVTVRSIISMFDRENKAGVNFSEFTGVWKYITDWQNVFRTYDRDNSGMIDKNELKQALSGWGYRLSDQFHDILIRKFDRQGRGQIAFDDFIQGCIVLQRLTDIFRRYDTDQDGWIQVSYEQYLSMVFSIV
notes: ALG-2, human, 191 residues, Phe122 substituted with Trp; PDB 2ZN8 is the wild-type full-length parent

relative binding capacity (% of WT resonance signal) [1]: 89%
B5: ALG-2^F122S, full-length recombinant (natural protein, human, UniProt O75340 1-191, looked up)
chain: MAAYSYRPGPGAGPGPAAGAALPDQSFLWNVFQRVDKDRSGVISDTELQQALSNGTWTPFNPVTVRSIISMFDRENKAGVNFSEFTGVWKYITDWQNVFRTYDRDNSGMIDKNELKQALSGSGYRLSDQFHDILIRKFDRQGRGQIAFDDFIQGCIVLQRLTDIFRRYDTDQDGWIQVSYEQYLSMVFSIV
notes: ALG-2, human, 191 residues, Phe122 substituted with Ser; PDB 2ZN8 is the wild-type full-length parent

More lines, now with the values behind:

B1: ALG-2^F122A, full-length recombinant (natural protein, human, UniProt O75340 1-191, looked up)
chain: MAAYSYRPGPGAGPGPAAGAALPDQSFLWNVFQRVDKDRSGVISDTELQQALSNGTWTPFNPVTVRSIISMFDRENKAGVNFSEFTGVWKYITDWQNVFRTYDRDNSGMIDKNELKQALSGAGYRLSDQFHDILIRKFDRQGRGQIAFDDFIQGCIVLQRLTDIFRRYDTDQDGWIQVSYEQYLSMVFSIV
notes: ALG-2, human, 191 residues, Phe122 substituted with Ala; PDB 2ZN8 is the wild-type full-length parent
relative binding capacity (% of WT resonance signal) [1]: 240%

Binder: B2
binding result [2]: binds

B4: ALG-2^F122G, full-length recombinant (natural protein, human, UniProt O75340 1-191, looked up)
chain: MAAYSYRPGPGAGPGPAAGAALPDQSFLWNVFQRVDKDRSGVISDTELQQALSNGTWTPFNPVTVRSIISMFDRENKAGVNFSEFTGVWKYITDWQNVFRTYDRDNSGMIDKNELKQALSGGGYRLSDQFHDILIRKFDRQGRGQIAFDDFIQGCIVLQRLTDIFRRYDTDQDGWIQVSYEQYLSMVFSIV
notes: ALG-2, human, 191 residues, Phe122 substituted with Gly; PDB 2ZN8 is the wild-type full-length parent
relative binding capacity (% of WT resonance signal) [1]: 140%
